Assay results as given in the supplement of paper PMC12764529.
± gives the half width of the 95% confidence interval.

Legend:
[1] = folding stability dG unfold from trypsin proteolysis; higher = more stable
Procedure, shortened: (§1)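 How resistant each design was to proteolysis was captured as K50, inferred by Bayesian fitting of sequencing counts. Unfolding free energy was then derived relative to a sequence-predicted unfolded-state K50 and a shared folded-state K50, per protease or combined. Digestion used trypsin and chymotrypsin at 11 threefold-diluted concentrations plus a no-protease condition, on mini-proteins under 80 residues without cysteine in a PA-tagged cDNA display construct. Designs were kept only when AlphaFold2 dimer inter-PAE was above 15.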

[2] = folding stability dG unfold from chymotrypsin proteolysis; higher = more stable
Procedure, shortened: as §1

[3] = folding stability dG unfold (combined trypsin and chymotrypsin); higher = more stable
Procedure, shortened: as §1

| Sequence | folding stability dG unfold [1] [kcal/mol] | folding stability dG unfold [2] [kcal/mol] | folding stability dG unfold [3] [kcal/mol] |
| --- | --- | --- | --- |
| LDPNKPENIALLEKVEEAAKAVIEELEKAGYKVEKLYVALGPNGIKIAPVTIPPEFIEELKKAGILVIPVLS [r1_134_TrMRF] | 1.49 ± 0.11 | 1.64 ± 0.14 | 1.56 ± 0.26 |
| SAGGTLKVTEEEVSESEFESPGLPLRRTTTTYTLVDPVTGKPVPTSKKVTVETLETPEGRVLETVVTSSAGG [r13_24_JUSTAS] | -0.45 ± 0.24 | 0.0434 ± 0.14 | -0.0697 ± 0.13 |
| SAGGEKIKLKVVIKVPKELKNLSKEEIEELLKKKLGPNYKITKVEIKVEKNENGEEYLVVEVEIEKESAGGS [r16_408_TrROS_Hall] | 3.64 ± 0.21 | 3.37 ± 0.13 | 3.58 ± 0.23 |
| SAGGSAGGSFKDVPPGLKPLREEENVLFYQLPDGSYLVLVKEGDKIKKIKASKSTSIEEAIKKSAGGSAGGS [r12_605_JUSTAS] | 0.44 ± 0.11 | 2.09 ± 0.041 | 1.61 ± 0.16 |
| SAGGSAGGSAGKAKIEVVEVDKNGKVRLKIKLENGEVKEIENADEITINGKKIKVEKIEPSAGGSAGGSAGG [r11_1017_TrROS_Hall] | -0.311 ± 0.25 | 1.52 ± 0.042 | 1.11 ± 0.1 |
| SAGGSAGGSAGGMYFIRIKPPNGEELVILIPPGDEIKIKDADGRPWKITDVYPMPPEQFSAGGSAGGSAGGS [r10_422_TrROS] | -0.17 ± 0.27 | -0.118 ± 0.73 | 0.0506 ± 0.41 |
| SAGGSKFEVEKLPDNTYRFKVPNENGETLEITVEKLPDGAILVTHPSNPKPVLFPASTTIEDLLKKSAGGSA [r2_338_TrMRF] | 1.29 ± 0.029 | 2.22 ± 0.029 | 1.95 ± 0.032 |
| SAGGSAGGSAGRAEIPITFNGKKVEVEVEPDPDNGHPIITIKFGNKPVVINPDGQIRPFPSAGGSAGGSAGG [r11_732_TrROS] | -0.0507 ± 0.11 | -0.0926 ± 0.47 | 0.0302 ± 0.19 |
| SAGGSAGGSAGMVINVTVTLKNSTGTITITLPVPPDLLDEVLKELKEKPDYEVVSVDTSPSAGGSAGGSAGG [r11_692_JUSTAS] | 2.47 ± 0.11 | 2.79 ± 0.16 | 2.67 ± 0.14 |
| SAGGSAGGSAAPVPPDRTLTVYRDPNTDKYTIRTPDGSVTVSPITPEELRAAGAPVVYLGPESAGGSAGGSA [r18_125_JUSTAS] | -1 ± 0.25 | -0.0867 ± 0.12 | -0.297 ± 0.073 |
| SAGGSAGGSGVTIPIWYKMDPGQPVPTAEEIQNIINELGFPIKDIKVQYHPDNGYVRAEITVKSAGGSAGGS [r12_1052_TrROS] | 1.25 ± 0.048 | 0.828 ± 0.088 | 1.11 ± 0.17 |
| SAGGSAGGSAGWFFVMDIKYEYRQTPDGKTEQEMSIEMKPIPPIPAEDLKEKLGLPPEDIASAGGSAGGSAG [r3_338_TrROS] | 0.937 ± 0.067 | 2.62 ± 0.11 | 1.94 ± 0.17 |
| SAGGSALKIMVEPDPEDGTVRVWFMIPNPENGEEFMVQAEIDPNGKIEDVEVYPNGNMIWITFKLPSAGGSA [r15_557_TrROS] | 2.4 ± 0.061 | 3.36 ± 0.037 | 2.96 ± 0.087 |
| SAGGSAGGSAGAEIKIKKVEKKDSKLKLILPDGRIYEVKKDKKKSNSIKKIKIKKLPPLKSAGGSAGGSAGG [r17_173_JUSTAS] | 0.113 ± 0.34 | -0.181 ± 0.59 | -0.0549 ± 0.47 |
| SPNLKPVEFPIKIPGYKIRRVSIWKSPDGPVEIFVRFPDGWYYEFEIPPNGDIQPMKITEAVPPDEDKKNSA [r9_1075_TrROS] | 1.57 ± 0.086 | 1.14 ± 0.17 | 1.38 ± 0.16 |
| SAGGSAGGSMRVEITEVKEVRGEGGEPRYLVTVRITVPDGKEETFVYEFKTPEELEKLEVELPSAGGSAGGS [r20_130_JUSTAS] | 2.55 ± 0.062 | 3.37 ± 0.038 | 3.13 ± 0.061 |

| Sequence | folding stability dG unfold [1] [kcal/mol] | folding stability dG unfold [2] [kcal/mol] | folding stability dG unfold [3] [kcal/mol] |
| --- | --- | --- | --- |
| SFIRKDPDGTYVIMGRMPPNMPIEEFLENLPGFKIKDVEYQPDPENGYWYFTLVITPRGKVKIDWVPMGDSA [r9_238_TrROS] | 2 ± 0.03 | 1.91 ± 0.11 | 2 ± 0.11 |
| SAGGSAGGLPPGQSIEIFIFSMFPTPNGNLNLEMIQITIRIRPVVRKPDNGGEKYVPPDDPDLASAGGSAGG [r6_405_TrROS] | 2.87 ± 0.11 | 4.36 ± 0.22 | 3.97 ± 0.16 |
| SAGGSAGGSAGMKVVVELEVTFDSEEEAEAVAKAIAEELGSEDVVVKVIRKPVELGPGLKSAGGSAGGSAGG [r17_285_JUSTAS] | 0.0891 ± 0.061 | 0.891 ± 0.031 | 0.656 ± 0.051 |
| SAGMTVSTETTTFTDPAGFETTVTTLTTTHPDGSVTSTPTTTVTAVPVPPPPAPVPVDPANPDNPALLSAGG [r19_12_JUSTAS] | 0.461 ± 0.038 | -0.509 ± 0.095 | 0.163 ± 0.025 |
| SAGGSAGGSAGEFEIIIPPGVAEERPELLEEIRDRFKPLGLEVEVEYIPGEGYVRVKVKGSAGGSAGGSAGG [r11_357_TrMRF] | 1.36 ± 0.061 | 1.64 ± 0.036 | 1.55 ± 0.11 |
| SAGGSAGGSAGGMPTTATITLPGGETLTVPVPVDPSTGTVSEEEIRALVGPEFEFEILGGSAGGSAGGSAGG [r7_492_JUSTAS] | 0.779 ± 0.04 | 1.49 ± 0.062 | 1.24 ± 0.068 |
| SAGQTITFELKDPDITPEELQKKLQKRFGMKPMNIKPVEPDPDGWRFVIEFPENGGTRTFPWEEIRELISAG [r5_550_TrROS] | 0.861 ± 0.11 | 1.12 ± 0.18 | 1.03 ± 0.13 |
| GEFVSVESVERLPDGTLVVKIKYKPPSPDTPVTVTVSHPDSSVTFTMDPTSSTITVTVPPSVSDVSVTVVGS [r1_428_JUSTAS] | 2.6 ± 0.1 | 3.58 ± 0.12 | 3.29 ± 0.093 |
| SAGGSAGGSAMKIVEWNEETGELTIELPDGTKITLKVENGEITEVKVEPLPPVPPDLPELKSAGGSAGGSAG [r3_406_TrROS_Hall] | 0.537 ± 0.15 | 2.45 ± 0.16 | 2.24 ± 0.24 |
| SLKPGETKTLTLLIRTKDPEKTAEELAEEARKEIEELLPPGVKIEVKVTSVEPLPETGEVDVTVEVTVTASA [r9_706_TrMRF] | 3.02 ± 0.19 | 3.01 ± 0.06 | 2.97 ± 0.13 |
| SAGAMLTLELTVEADSPEEAIERAKEIAKELIKKEYPELSKNTKIEKITAEPTPGPEVKVTITIKIDPGSAG [r5_320_JUSTAS] | 4.42 ± 0.17 | 3.61 ± 0.18 | 4.32 ± 0.22 |
| SAGGSAGGSMVEEFLASLPPDATVTVDPSTGVVTVSLPAEGRTLTLTVDTATGTVTETERRPESAGGSAGGS [r12_82_JUSTAS] | 1.56 ± 0.028 | 1.762 ± 0.0075 | 1.71 ± 0.027 |
| KTITIVIKNEDGELYVIKIKLKNGEEKEIVFKSLEELKNAIAKELGLSKEKIEIVEIKPLSPEELKELEKKS [r1_119_TrROS_Hall] | 1.99 ± 0.13 | 3.96 ± 0.14 | 3.33 ± 0.35 |
| SAGGSAGGSAGMRLVTITLTTEKPIFDENGNPIGTTTRTVVLEREVPEPEVPEVPLYQALSAGGSAGGSAGG [r11_131_JUSTAS] | 0.304 ± 0.18 | 0.189 ± 0.18 | 0.261 ± 0.17 |
| SAGGSAGGDEKAKEELKKKKPPKIELTVKVEVEVSEDGTVKVKAKVFGPDGKLIAEAEFTFKVKSAGGSAGG [r6_419_TrROS_Hall] | 1.67 ± 0.19 | 2.5 ± 0.12 | 2.58 ± 0.38 |
